# Measurements as given in US20250250350.
# Target: ALPG/P priming receptor of the AB-1013, AB-1014 and AB-1015 circuits
# Sequence (chain, as listed by the source): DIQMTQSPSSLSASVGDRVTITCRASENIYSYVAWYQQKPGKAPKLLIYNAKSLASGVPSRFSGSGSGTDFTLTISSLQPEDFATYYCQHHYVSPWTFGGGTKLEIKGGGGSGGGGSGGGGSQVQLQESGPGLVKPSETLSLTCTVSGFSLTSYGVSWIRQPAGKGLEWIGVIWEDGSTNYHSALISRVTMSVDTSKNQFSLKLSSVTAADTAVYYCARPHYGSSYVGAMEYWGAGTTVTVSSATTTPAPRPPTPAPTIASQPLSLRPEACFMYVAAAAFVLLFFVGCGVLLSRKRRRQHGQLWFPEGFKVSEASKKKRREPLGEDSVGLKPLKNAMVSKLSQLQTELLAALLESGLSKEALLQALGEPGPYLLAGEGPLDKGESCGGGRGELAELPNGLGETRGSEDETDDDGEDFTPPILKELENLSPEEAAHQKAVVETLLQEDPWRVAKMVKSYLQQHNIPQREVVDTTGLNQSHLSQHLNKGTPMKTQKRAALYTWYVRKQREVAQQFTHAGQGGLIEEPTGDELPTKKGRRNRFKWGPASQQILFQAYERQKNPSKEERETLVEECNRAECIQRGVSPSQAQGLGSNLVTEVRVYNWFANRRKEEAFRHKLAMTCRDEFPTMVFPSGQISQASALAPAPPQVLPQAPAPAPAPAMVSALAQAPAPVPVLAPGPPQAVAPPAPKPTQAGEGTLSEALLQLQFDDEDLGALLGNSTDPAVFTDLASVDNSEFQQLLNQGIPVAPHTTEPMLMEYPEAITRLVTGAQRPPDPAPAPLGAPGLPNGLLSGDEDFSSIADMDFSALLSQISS
protein,measurement,value
"Alkaline Phosphatase, Germ Cell (ALPG) expressed on K562-ALPG and K562-ALPG/MSLN target cells (protein) IIPVEEENPDFWNRQAAEALGAAKKLQPAQTAAKNLIIFLGDGMGVSTVTAARILKGQKKDKLGPETFLAMDRFPYVALSKTYSVDKHVPDSGATATAYLCGVKGNFQTIGLSAAARFNQCNTTRGNEVISVMNRAKKAGKSVGVVTTTRVQHASPAGAYAHTVNRNWYSDADVPASARQEGCQDIATQLISNMDIDVILGGGRKYMFPMGTPDPEYPDDYSQGGTRLDGKNLVQEWLAKHQGARYVWNRTELLQASLDPSVTHLMGLFEPGDMKYEIHRDSTLDPSLMEMTEAALLLLSRNPRGFFLFVEGGRIDHGHHESRAYRALTETIMFDDAIERAGQLTSEEDTLSLVTADHSHVFSFGGYPLRGSSIFGLAPGKARDRKAYTVLLYGNGPGYVLKDGARPDVTESESGSPEYRQQSAVPLDGETHAGEDVAVFARGPQAHLVHGVQEQTFIAHVMAFAACLEPYTACDLAPRAGTTD",time to peak of ALPG-dependent CAR conversion,reached a peak after around 100 hours of stimulation with the PrimeR antigen
